Experimental data taken from US20130337438A1 (JAPAN HEALTH SCIENCES FOUNDATION, published 2013).

Columns and labels:
[1] = target: T1, HPV33 L1/L2-capsid (human papillomavirus type 33, UniProt P06418 1-467; P06416 1-499); test: ELISA on immobilized L1/L2-capsid, ascites 1:100
T1 construct: Capsid of co-expressed L1 and L2 from 293FT cells; The pseudovirus is the same capsid with a reporter plasmid; also called L1/L2-capsid of type 33; HPV33 pseudovirus
T1 sequence 1: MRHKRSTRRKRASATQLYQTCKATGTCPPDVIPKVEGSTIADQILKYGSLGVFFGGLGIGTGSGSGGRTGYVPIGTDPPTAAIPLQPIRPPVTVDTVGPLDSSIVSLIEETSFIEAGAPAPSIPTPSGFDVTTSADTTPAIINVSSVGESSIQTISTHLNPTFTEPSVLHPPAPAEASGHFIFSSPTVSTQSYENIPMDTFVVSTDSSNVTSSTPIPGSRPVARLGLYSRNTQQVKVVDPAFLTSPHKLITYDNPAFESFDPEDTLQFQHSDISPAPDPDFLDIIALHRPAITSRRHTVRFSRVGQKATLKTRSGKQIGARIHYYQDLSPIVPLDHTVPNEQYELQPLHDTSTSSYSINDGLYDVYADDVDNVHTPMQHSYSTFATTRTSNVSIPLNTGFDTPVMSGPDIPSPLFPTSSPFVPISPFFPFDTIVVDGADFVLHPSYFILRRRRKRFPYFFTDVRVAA
T1 sequence 2: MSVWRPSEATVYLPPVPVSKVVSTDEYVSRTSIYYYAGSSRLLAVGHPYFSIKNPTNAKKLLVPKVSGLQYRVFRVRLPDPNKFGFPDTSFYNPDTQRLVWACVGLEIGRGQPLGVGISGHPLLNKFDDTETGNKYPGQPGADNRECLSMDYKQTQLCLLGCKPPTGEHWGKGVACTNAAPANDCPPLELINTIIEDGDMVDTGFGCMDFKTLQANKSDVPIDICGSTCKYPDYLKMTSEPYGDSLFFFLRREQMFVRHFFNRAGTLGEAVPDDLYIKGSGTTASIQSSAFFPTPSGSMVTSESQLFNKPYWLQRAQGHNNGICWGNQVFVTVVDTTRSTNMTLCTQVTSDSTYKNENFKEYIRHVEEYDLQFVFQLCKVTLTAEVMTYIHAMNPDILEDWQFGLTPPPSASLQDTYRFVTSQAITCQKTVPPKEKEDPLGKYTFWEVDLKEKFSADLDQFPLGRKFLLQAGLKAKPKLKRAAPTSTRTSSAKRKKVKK

[2] = target: T2, HPV51 L1/L2-capsid (human papillomavirus type 51, UniProt P26539 1-468; P26536 1-504); test: ELISA on immobilized L1/L2-capsid, ascites 1:100
T2 construct: Capsid of co-expressed L1 and L2 from 293FT cells; The pseudovirus is the same capsid with a reporter plasmid; also called L1/L2-capsid of type 51; HPV51 pseudovirus
T2 sequence 1: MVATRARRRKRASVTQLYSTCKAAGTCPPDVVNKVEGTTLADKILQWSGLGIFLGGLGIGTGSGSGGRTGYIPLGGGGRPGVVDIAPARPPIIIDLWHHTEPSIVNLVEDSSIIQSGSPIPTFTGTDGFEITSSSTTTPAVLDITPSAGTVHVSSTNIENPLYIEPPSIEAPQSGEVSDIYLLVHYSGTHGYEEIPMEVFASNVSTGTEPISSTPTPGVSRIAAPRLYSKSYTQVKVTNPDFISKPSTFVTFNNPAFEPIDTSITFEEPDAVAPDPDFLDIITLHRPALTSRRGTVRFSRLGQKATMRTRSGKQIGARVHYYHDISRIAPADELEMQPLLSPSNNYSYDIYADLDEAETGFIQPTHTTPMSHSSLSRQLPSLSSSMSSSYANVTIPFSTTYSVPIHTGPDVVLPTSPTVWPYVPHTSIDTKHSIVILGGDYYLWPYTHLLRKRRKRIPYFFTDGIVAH
T2 sequence 2: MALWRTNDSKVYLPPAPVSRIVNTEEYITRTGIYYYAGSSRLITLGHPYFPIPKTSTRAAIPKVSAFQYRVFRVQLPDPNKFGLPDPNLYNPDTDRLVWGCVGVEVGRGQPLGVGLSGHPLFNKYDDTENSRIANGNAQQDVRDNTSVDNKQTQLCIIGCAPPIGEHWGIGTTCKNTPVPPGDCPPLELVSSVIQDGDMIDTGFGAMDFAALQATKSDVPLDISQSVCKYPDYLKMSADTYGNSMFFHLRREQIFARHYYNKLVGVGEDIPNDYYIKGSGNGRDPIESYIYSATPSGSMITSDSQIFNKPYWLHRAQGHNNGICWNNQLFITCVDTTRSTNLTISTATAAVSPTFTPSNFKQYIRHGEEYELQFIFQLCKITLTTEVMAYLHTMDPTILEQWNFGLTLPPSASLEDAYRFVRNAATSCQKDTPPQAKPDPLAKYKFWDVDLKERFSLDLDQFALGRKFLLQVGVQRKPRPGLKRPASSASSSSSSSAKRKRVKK

B1: monoclonal antibody 24B (antibody, V domains shown)
VH: EVQLQQSGTVLARPGASVKMSCKASVYSFPSNWMHWVKQRPGQGLEWIGAIYPGTGATRYNQKFKDKAKLTAVTSADTAYMELSSLTDEDSAVYYCTGYSLYWGQGTILTVSS
VL: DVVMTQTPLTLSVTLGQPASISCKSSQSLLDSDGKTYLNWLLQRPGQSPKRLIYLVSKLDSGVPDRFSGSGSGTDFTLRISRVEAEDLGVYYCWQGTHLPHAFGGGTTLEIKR
notes: Used as mouse ascites or as antibody purified from ascites; also called Mouse-Mouse hybridoma 24B (FERM BP-11305)
B1: binds [1]; binds [2].
